Data: US20260109775A1 (Eli Lilly, published 2026)

Columns and labels:
[1] = target: Human CD137 expressed on stable human 293 cells (human, UniProt Q07011 24-255); experiment: cell-based or functional assay
[2] = target: T1, Cynomolgus monkey CD137 expressed on stable human 293 cells (cynomolgus monkey); experiment: flow cytometry on 293 cells expressing cynomolgus monkey CD137, antibody at 0.5 micrograms/mL, MFI against control IgG
T1 construct: whole, on cells; also called Cyno-CD137
Source text: The ability of the antibodies disclosed herein to bind to cell surface cynomolgus monkey CD137 can be measured using a flow cytometric assay. Cynomolgus monkey CD137 expressing stable cells are generated by transfecting Cyno-CD137 receptor plasmid DNA into human 293 cells (ATCC) using Lipofectamine™ 2000 reagent (Invitrogen™) per manufacturer's protocol. Stable cells are selected using 0.5 micrograms/mL puromycin in Dulbecoo's Modified Eagle's Medium containing 10% fetal bovine serum and 1% GlutaMAX™. For flow cytometry, confluent adherent cells are detached using Gibco® Cell Dissociation Buffer (Life Technologies), blocked in FACS buffer (phosphate buffered saline containing 3% fetal bovine serum) for 1 h at 4° C., and then transferred into a 96-well round-bottom plate at a density of 1×10⁵ cells/well.
After washing in FACS buffer, secondary antibody R-phycoerythrin conjugated goat anti-human IgG, F(ab′)₂ fragment specific antibody (Jackson ImmunoResearch Laboratories) is added at a 1:200 dilution and cells are incubated at 4° C. for 30 minutes. Cells are washed and live/dead cell staining is performed using LIVE/DEAD® Fixable Far Red Dead Cell Stain kit (Life Technologies) per manufacturer's protocol. […] Flow cytometry data is analyzed using FlowJo® Software. Mean fluorescence intensity (MFI) ratio is calculated as the (MFI of Experimental antibody)/(MFI of the control IgG).

Chain of Human CD137 expressed on stable human 293 cells (Q07011 24-255): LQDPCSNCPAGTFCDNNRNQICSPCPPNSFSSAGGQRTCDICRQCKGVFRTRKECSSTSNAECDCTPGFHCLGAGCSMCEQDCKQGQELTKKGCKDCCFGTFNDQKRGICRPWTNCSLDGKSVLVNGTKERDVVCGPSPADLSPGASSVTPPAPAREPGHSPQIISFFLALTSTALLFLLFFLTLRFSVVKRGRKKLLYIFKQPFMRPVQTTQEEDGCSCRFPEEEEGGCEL

B1: Antibody A1 (antibody, human IgG1, kappa)
heavy: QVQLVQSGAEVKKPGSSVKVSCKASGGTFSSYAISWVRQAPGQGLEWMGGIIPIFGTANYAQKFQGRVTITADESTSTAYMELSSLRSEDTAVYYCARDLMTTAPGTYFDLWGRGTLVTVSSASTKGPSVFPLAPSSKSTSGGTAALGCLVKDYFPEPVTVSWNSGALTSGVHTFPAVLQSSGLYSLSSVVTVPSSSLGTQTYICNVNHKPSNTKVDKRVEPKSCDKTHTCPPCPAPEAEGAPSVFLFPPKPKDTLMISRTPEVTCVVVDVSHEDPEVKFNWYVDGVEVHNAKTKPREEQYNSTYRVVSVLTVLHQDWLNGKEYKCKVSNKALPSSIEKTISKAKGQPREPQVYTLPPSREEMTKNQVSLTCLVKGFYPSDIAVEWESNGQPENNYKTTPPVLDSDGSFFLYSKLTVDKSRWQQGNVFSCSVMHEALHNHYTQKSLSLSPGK
light: AIRMTQSPPSLSASVGDRVTITCQASQDIGNSLGWYQQKPGKAPKLVIFDASDLETGVPSRFSGSGSGTDFSLTISSLQPEDFATYYCQQGNSFPLTFGQGTRLEIKRTVAAPSVFIFPPSDEQLKSGTASVVCLLNNFYPREAKVQWKVDNALQSGNSQESVTEQDSKDSTYSLSSTLTLSKADYEKHKVYACEVTHQGLSSPVTKSFNRGEC
- NF-kappaB luciferase reporter, max activity [1]: 63.4%

B2: BMS20H4.9 (antibody, human IgG4 S228P, kappa, V domains shown)
VH: QVQLQQWGAGLLKPSETLSLTCAVYGGSFSGYYWSWIRQSPEKGLEWIGEINHGGYVTYNPSLESRVTISVDTSKNQFSLKLSSVTAADTAVYYCARDYGPGNYDWYFDLWGRGTLVTVSS
VL: EIVLTQSPATLSLSPGERATLSCRASQSVSSYLAWYQQKPGQAPRLLIYDASNRATGIPARFSGSGSGTDFTLTISSLEPEDFAVYYCQQRSNWPPALTFGGGTKVEIKR
notes: Comparator antibody, previously described in U.S. Pat. No. 7,288,638
- NF-kappaB luciferase reporter, max activity [1]: 115%
- MFI ratio [2]: 0.94

B3: Antibody A2 (antibody, human IgG1, kappa)
heavy: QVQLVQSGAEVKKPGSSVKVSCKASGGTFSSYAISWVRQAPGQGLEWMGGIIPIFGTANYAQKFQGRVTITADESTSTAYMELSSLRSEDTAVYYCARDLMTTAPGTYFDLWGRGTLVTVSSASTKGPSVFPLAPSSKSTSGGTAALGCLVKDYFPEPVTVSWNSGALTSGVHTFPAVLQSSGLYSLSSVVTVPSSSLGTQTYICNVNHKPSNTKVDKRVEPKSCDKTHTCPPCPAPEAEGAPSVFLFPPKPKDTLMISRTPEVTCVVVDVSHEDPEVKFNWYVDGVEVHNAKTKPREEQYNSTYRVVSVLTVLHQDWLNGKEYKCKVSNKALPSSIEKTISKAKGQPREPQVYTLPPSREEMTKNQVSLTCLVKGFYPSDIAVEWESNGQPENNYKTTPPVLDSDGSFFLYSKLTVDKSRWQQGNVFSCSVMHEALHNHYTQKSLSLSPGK
light: IRMTQSPPSLSASVGDRVTITCQASQDIGNSLGWYQQKPGKAPKLVIFDASDLETGVPSRFSGSGSGTDFSLTISSLQPEDFATYYCQQGNSFPLTFGQGTRLEIKRTVAAPSVFIFPPSDEQLKSGTASVVCLLNNFYPREAKVQWKVDNALQSGNSQESVTEQDSKDSTYSLSSTLTLSKADYEKHKVYACEVTHQGLSSPVTKSFNRGEC
- NF-kappaB luciferase reporter, max activity [1]: 72.3%
